Where a chain is given by its changes, count along the chain named. Names and notes keep the numbering of the source. Each block holds one binder with its values, some of them ahead of it.
Columns and labels:
[1] = target: T1, DNA polymerase III α subunit (Escherichia coli, UniProt P10443 1-1160); test: single molecule DNA stretching
[2] = target: T1, DNA polymerase III α subunit; test: other fluorescence titration

T1 sequence (P10443 whole entry): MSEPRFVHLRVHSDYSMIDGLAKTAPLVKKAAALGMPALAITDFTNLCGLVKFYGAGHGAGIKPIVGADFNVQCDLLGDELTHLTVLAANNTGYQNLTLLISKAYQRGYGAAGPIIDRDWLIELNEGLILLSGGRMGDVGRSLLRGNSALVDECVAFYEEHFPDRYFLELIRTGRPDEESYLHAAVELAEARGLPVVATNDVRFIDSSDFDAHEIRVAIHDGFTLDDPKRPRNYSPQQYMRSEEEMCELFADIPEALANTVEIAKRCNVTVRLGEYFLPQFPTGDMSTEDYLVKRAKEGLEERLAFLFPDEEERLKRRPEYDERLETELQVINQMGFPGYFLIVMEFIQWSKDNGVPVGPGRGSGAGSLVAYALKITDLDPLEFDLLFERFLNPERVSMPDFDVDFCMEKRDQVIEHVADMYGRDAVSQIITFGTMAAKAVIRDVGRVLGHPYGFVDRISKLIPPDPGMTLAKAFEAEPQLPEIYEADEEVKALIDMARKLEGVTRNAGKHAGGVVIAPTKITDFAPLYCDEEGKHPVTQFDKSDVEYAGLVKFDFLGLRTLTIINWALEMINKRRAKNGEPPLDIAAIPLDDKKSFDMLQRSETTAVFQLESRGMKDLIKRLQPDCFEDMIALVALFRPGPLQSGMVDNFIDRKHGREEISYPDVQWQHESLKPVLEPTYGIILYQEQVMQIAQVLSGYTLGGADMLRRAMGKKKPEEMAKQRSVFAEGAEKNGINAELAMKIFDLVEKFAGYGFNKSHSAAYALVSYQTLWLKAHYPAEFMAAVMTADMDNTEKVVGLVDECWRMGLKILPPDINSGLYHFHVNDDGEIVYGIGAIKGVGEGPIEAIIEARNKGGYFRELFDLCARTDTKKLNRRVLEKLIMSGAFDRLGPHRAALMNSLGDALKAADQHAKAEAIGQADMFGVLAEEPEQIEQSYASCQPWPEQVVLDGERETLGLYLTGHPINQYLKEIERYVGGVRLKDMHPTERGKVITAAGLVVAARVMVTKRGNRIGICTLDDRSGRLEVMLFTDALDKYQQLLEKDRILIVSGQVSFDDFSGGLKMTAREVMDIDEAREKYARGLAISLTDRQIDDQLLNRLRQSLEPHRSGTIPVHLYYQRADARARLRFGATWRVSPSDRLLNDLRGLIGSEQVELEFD

Kd [1]: 0.34 ± 0.103 µM
B1: UmuD, wild type (natural protein, Escherichia coli, UniProt P0AG11 1-139, looked up)
chain: MLFIKPADLREIVTFPLFSDLVQCGFPSPAADYVEQRIDLNQLLIQHPSATYFVKASGDSMIDGGISDGDLLIVDSAITASHGDIVIAAVDGEFTVKKLQLRPTVQLIPMNSAYSPITISSEDTLDVFGVVIHVVKAMR

Kd [2]: 1.3 µM
B2: UmuD G92K (natural protein, Escherichia coli, UniProt P0AG11 1-139, looked up)
chain: B1 chain with G92K

Kd [2]: 18.1 µM
B3: UmuD D91K (natural protein, Escherichia coli, UniProt P0AG11 1-139, looked up)
chain: B1 chain with D91K

Kd [2]: 32.5 µM
B4: UmuD D91K-G92K (natural protein, Escherichia coli, UniProt P0AG11 1-139, looked up)
chain: B1 chain with D91K, G92K
